For the assay, the target named is LITAF (LPS-induced TNF-α factor), full length. Nature of the assay: cell-based or functional assay.
Sequence of LITAF (LPS-induced TNF-α factor), full length (chain, as listed by the source limits assumed): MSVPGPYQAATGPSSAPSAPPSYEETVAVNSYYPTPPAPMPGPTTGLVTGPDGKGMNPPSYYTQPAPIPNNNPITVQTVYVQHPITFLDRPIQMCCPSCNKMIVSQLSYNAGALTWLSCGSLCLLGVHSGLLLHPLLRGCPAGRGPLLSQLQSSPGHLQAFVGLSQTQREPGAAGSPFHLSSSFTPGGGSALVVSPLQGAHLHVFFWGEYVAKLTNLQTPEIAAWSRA

B1: STAT6(B) (Signal transducer and activator of transcription), full length, aa 1-404 (other)
chain: MARRNPSPPLQRLRDWGHHHCPCHPGPGWLSTDGEHPAILCQRPVHSLTGGPNPGSCSAQKSLSQEAQGGGFPEPLQAWAGTGCSDSFLSPTSSLLPAALLSLPVCHPDVTPYFIAVLLLLPHDPCPPFPPPFLPNPRALHGCLFLLTTAEQMGKDGRGYVPATIKMTVERGVWWYGQWVGQGLVVLICRKEGWHQPLVSHMYLLPSSRDQPLPTPELQMPTMVPSYDLGMAPDSSMSMQLGPDMVPQVYPPHSHSIPPYQGLSPEESVNVLSAFQEPHLQMPPSLGQMSLSFDQPHPQGLLPCQPQEHAVSSPDPLLCSDVTTVEDSCLSQPVTAFPQGTWIGEDIFPPLLPPTEQDLTKLLLEGQGESGGGSLGAQPLLQPSHYGQSGISMSHMDLRANPSW
Consider B1, for which the “TNF-promoter activity (luciferase), U2OS cells, co-transfection versus LITAF alone” value came to 1.5 fold; the “TNF-α in supernatants of transfected THP-1 cells (ELISA), versus LITAF alone” value amounted to 1.8 fold; the “cytokine antibody array, 'W-10' (probably IL-10), THP-1 cells co-transfected with LITAF and STAT6(B)” value turned out to be 10 fold; the “cytokine antibody array, GRO, THP-1 cells co-transfected with LITAF and STAT6(B)” value came out at 2.1 fold. Further, the “cytokine antibody array, IFN-γ, THP-1 cells co-transfected with LITAF and STAT6(B)” value turned out to be 6.2 fold; the “cytokine antibody array, IL-1α, THP-1 cells co-transfected with LITAF and STAT6(B)” value turned out to be 3 fold; the “cytokine antibody array, MCP-2, THP-1 cells co-transfected with LITAF and STAT6(B)” value worked out at 8.5 fold; the “cytokine antibody array, RANTES, THP-1 cells co-transfected with LITAF and STAT6(B)” value came out at 3.2 fold. For the same molecule, the “cytokine antibody array, TNF-α, THP-1 cells co-transfected with LITAF and STAT6(B)” value was 4 fold.

These data come from patent US20090062190A1 (published 2009).
